B1: GST–Fyn SH3–strep (domain or fragment)
chain: not shown

Key:
Experiment in all cases: AlphaScreen or HTRF
GST–Fyn SH3–strep = molecular target: B1
P233A Tau = P233A Tau (human, UniProt P10636-8 1-441, P233A)
P236A Tau = P236A Tau (human, UniProt P10636-8 1-441, P236A)
4R1N Tau = 4R1N Tau (human, UniProt P10636-7 1-412)
4R0N Tau = 4R0N Tau (human, UniProt P10636-6 1-383)
3R2N Tau = 3R2N Tau (human, UniProt P10636-5 1-410)
3R1N Tau = 3R1N Tau (human, UniProt P10636-4 1-381)
3R0N Tau = 3R0N Tau (human, UniProt P10636-2 1-352)
P203A Tau = P203A Tau (human, UniProt P10636-8 1-441, P203A)
[1] = molecular target: Tau with P232 mutated to alanine (human, UniProt P10636-8 1-441, P232 (alanine scan))

Measured: binding result

YGRKKRRQRRRRSRTPSLPTPPTREPKK [Tat-tagged peptide spanning the 5th and 6th PXXP motifs in Tau]
binds: GST–Fyn SH3–strep

B1
not listed: GST–Fyn SH3–strep
binds: all other assays above
